Experiments:
[1] = target: N.CglI isolated Z1 domain (Corynebacterium glutamicum ATCC 13032); experiment: SEC; gel filtration of single proteins and domains, Superdex 200 HR, room temperature, 20 mM Tris-HCl pH 8.0, 300 mM NaCl, 5 mM 2-mercaptoethanol; 20 μM (monomer) loading concentration
[2] = target: R.CglI (Corynebacterium glutamicum ATCC 13032)
[3] = target: N.CglI (Corynebacterium glutamicum ATCC 13032); experiment: SAXS; full-length R- and N-proteins in 20 mM Tris-HCl pH 8.0, 400 mM KCl, 0.1 mM EDTA, 1 mM DTT; molecular weight from scattering data (MoW)
[4] = target: N.CglI (Corynebacterium glutamicum ATCC 13032); experiment: SEC; gel filtration of single proteins and domains, Superdex 200 HR, room temperature, 20 mM Tris-HCl pH 8.0, 300 mM NaCl, 5 mM 2-mercaptoethanol; 20 μM (monomer) loading concentration
[5] = target: R.NgoAVII (Neisseria gonorrhoeae FA1090); experiment: SAXS; full-length R- and N-proteins in 20 mM Tris-HCl pH 8.0, 400 mM KCl, 0.1 mM EDTA, 1 mM DTT; molecular weight from scattering data (MoW)
[6] = target: R.NgoAVII (Neisseria gonorrhoeae FA1090); experiment: SEC; gel filtration of single proteins and domains, Superdex 200 HR, room temperature, 20 mM Tris-HCl pH 8.0, 300 mM NaCl, 5 mM 2-mercaptoethanol; 20 μM (monomer) loading concentration
[7] = target: R.CglI (containing a StrepII-tag), co-expressed with N.CglI (Corynebacterium glutamicum ATCC 13032); experiment: densitometry of SDS-PAGE; purified RN.CglI complex resolved by SDS/PAGE, molar ratio of the two bands
[8] = target: N.CglI (containing a His6-tag), co-expressed with R.CglI (Corynebacterium glutamicum ATCC 13032); experiment: SEC + other: SAXS; purified co-expressed RN.CglI complex; molecular weight close to the sum of the R.CglI and N.CglI dimers
[9] = target: R.CglI (containing a StrepII-tag), co-expressed with N.CglI (Corynebacterium glutamicum ATCC 13032); experiment: as above
[10] = target: N.CglI isolated Z1-C domain (Corynebacterium glutamicum ATCC 13032); experiment: SEC; gel filtration of single proteins and domains, Superdex 200 HR, room temperature, 20 mM Tris-HCl pH 8.0, 300 mM NaCl, 5 mM 2-mercaptoethanol; 20 μM (monomer) loading concentration
[11] = target: R.CglI (Corynebacterium glutamicum ATCC 13032); experiment: SAXS; full-length R- and N-proteins in 20 mM Tris-HCl pH 8.0, 400 mM KCl, 0.1 mM EDTA, 1 mM DTT; molecular weight from scattering data (MoW)
[12] = target: R.CglI (Corynebacterium glutamicum ATCC 13032); experiment: SEC; gel filtration of single proteins and domains, Superdex 200 HR, room temperature, 20 mM Tris-HCl pH 8.0, 300 mM NaCl, 5 mM 2-mercaptoethanol; 20 μM (monomer) loading concentration
[13] = target: N.CglI-DEAD-Z1 domain (Corynebacterium glutamicum ATCC 13032); experiment: as above
[14] = system: R.CglI (Corynebacterium glutamicum ATCC 13032); experiment: EMSA; conditions: no metal, 0.1 mM EDTA; EMSA: 1 nM 33P-DNA, 1-500 nM protein monomer, 40 mM Tris-acetate pH 8.3 (25°C), 0.1 mM EDTA (NgoAVII: 5 mM Ca-acetate instead), 0.1 mg/ml BSA, 10% glycerol …
[15] = system: R.CglI in RN.CglI complex;N.CglI (Corynebacterium glutamicum ATCC 13032;Corynebacterium glutamicum ATCC 13032); experiment: EMSA; conditions: EMSA: 1 nM 33P-DNA, 1-500 nM protein monomer, 40 mM Tris-acetate pH 8.3 (25°C), 0.1 mM EDTA (NgoAVII: 5 mM Ca-acetate instead), 0.1 mg/ml BSA, 10% glycerol …
[16] = target: the molecule itself; experiment: SEC; gel filtration of single proteins and domains, Superdex 200 HR, room temperature, 20 mM Tris-HCl pH 8.0, 300 mM NaCl, 5 mM 2-mercaptoethanol; 20 μM (monomer) loading concentration

N.CglI isolated Z1 domain (domain or fragment)
stoichiometry N [1]: 2

N.CglI (enzyme)
ATP hydrolysis rate of N.CglI at saturating ATP (4 mM) and optimal concentrations of DNA and R.CglI (malachite green assay) [2]: 176 ATP/s
stoichiometry N [3]: 2
stoichiometry N [4]: 2

R.NgoAVII (enzyme)
stoichiometry N [5]: 2
stoichiometry N [6]: 2

N.CglI (containing a His6-tag), co-expressed with R.CglI (enzyme)
stoichiometry N (N.CglI per R.CglI) [7]: 0.75
stoichiometry N [8]: 2
stoichiometry N (N.CglI per R.CglI (2:2)) [9]: 1

N.CglI isolated Z1-C domain (domain or fragment)
stoichiometry N [10]: 2

R.CglI (enzyme)
stoichiometry N [11]: 2
stoichiometry N [12]: 2

N.CglI-DEAD-Z1 domain (domain or fragment)
stoichiometry N [13]: 2

TACAATCGATAATAGCCGCCGTGCGAGCCCATT (double strand) [33 bp cognate duplex]
Kd [14]: 9.2 nM
Kd [15]: 1.9 nM

R.CglI (containing a StrepII-tag), co-expressed with N.CglI (enzyme)
stoichiometry N [9]: 2

B1: R.CglI isolated PLD domain (domain or fragment)
chain: PLDKFFDKELKDTHHLDITVGYISEKSLQYLLLIAGTHPDLTITLTCGMHAREGMTAAQLHHARVLHDYLSDHDRGGVFVIPRLRYHGKIYLFHKNQHTDPIAYIGSANLSAIVPGYTSTFETGVILDPAPEDLVLH
stoichiometry N [16]: 2

Reference: publication PMC4267653, “DNA cleavage by CgII and NgoAVII requires interaction between N- and R-proteins and extensive nucleotide hydrolysis” (Nucleic Acids Research, 2014)
